Experimental data from publication PMC3993263.

T1: RaaS (UniProt O86312)
T1 sequence: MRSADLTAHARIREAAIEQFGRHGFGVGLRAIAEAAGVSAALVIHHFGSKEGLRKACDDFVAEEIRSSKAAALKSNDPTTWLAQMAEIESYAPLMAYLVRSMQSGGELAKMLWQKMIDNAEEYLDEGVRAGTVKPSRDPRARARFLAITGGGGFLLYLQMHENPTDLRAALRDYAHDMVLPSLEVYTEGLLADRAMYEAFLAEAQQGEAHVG

T2: RaaS (UniProt O86312 1-212)
T2 sequence: T1 sequence

B1: M5 (dsDNA)
DNA 1: GGGATGAACGTACGAAAAATATCCTGAACATGCGTTCAG
DNA 2: GGGCTGAACGCATGTTCAGGATATTTTTCGTACGTTCAT
B2: M6 (single repeat) (dsDNA)
DNA 1: GGGTGAACATGCGTTCA
DNA 2: GGGTGAACGCATGTTCA

Legend:
RaaS [1] = target: T1, RaaS; assay: fluorescence anisotropy; conditions: anisotropy: 50 mM Tris-HCl pH 8.5, 150 mM NaCl, temperature not stated
RaaS [2] = target: T2, RaaS; assay: EMSA; 20 nM DNA, 170 nM RaaS; […]; anisotropy: 50 mM Tris-HCl pH 8.5, 150 mM NaCl; temperature not stated; conditions: protein: recombinant; tags: 6xHis (pET15-Tev); chain copies: 2; label: 32P; 5' overhang 3 nt on both strands

Molecule	Kd (RaaS [1]) [nM]	binding result (RaaS [2])
labeled RaaS-site oligonucleotide (anisotropy)	31	–
B1	–	no binding
B2	–	no binding
